Measured values taken from a protein production outcome set (Wang et al. 2014).

assay: label from the status in PepcDB records

Sequence | protein production
MLIPSKLHFPRRLHNAILRQRVLDTLENAMHYKLVLFRSPAGYGKTTMAAQWLSDKDATGWYSLDESDNDEYKFAKYFVQTISNATHTELSHSKALTEKRQFASLSSLFSQVFTELISFQDEAYIVLDDYHLITNDTIHLGLKFFLKHLPDNLTLVITSRSQPPLNTANLRVRDLLIEIDNQSLAFDQSETSLFFNQRLNENIDQEAITHVREHVEGWPSALQLIALHSIQNNQSLNNSAQVMAQLNHAHLWDYLAEEVFDHLDQETQQFLMRCAVFDHFNTTLLSKVTQRKDAQLLIENLNRFGLFINTNGEQGDWYKFHNLFAEFLTHQRQNHLAHEEIDLQKYAAEAWLEHDNIYQALRHAKNAKDDILIANILTQHGWHLFNNGELSLLETTISDLRPEVLFTSPRLVIIRAWLAQSQHNYLQVNDLLSEAQREMADRNIVLDRHMQGEIDALRAQVAINKNEPEAALAFAEKALEELETNKYRSRIVATSVIGEYHHVSGNLAQALALMQQTEKMAMTYGIYHQALWAILQQSEILMAQGFMQAAFDLQDNGFKLIEDQDLHQLPLHEFLLRSRAQIYWFWFRFDEAEQCTWKGLDVLSPFDETKHLRGYSMLARLAVARGELDKAERYLDKCQQLLGQSDYHIDWKANASSAQLFYWQAKNNSEAIQYWLAQAERPETRCNHFTQLQWRNIARAQFHLGDIDTAIETLQTSQTIAQQHKLITDINRNAILAAILLYENKQIDEAVEAMHLAIKQSNQTGIIGSFLMAGRNVLKPLGKLQQKGNVTELEKHRIEQLQKALSNNERSRSAHFDETFIEKVLNTPEVPELIRTSPLTHREWQVLGLIYSGFSNEQIAAEFDVAPTTIKTHIRNLYQKLNLPNRKAAIAMADELVGMMK | failed
MLIRPTLEPDITWLPDVERSAAQAFVSWPALAWLAQGDVMDCAAHRAFVEAGGSWVAQDATGRIVGFACARLADQALHLHEISVRQEAQGQGVGRRLLQQVVDAGRCAGVRELTLTTFVDVPWNAPFYARFGFEMLQESRLCERLRGILASEHAHGLLGRCAMRLNVGL | failed
MLIVIGYAVVILAVVGSFIGLGGHLGALYQPFELTLIAGAAVGAFMAGNSRKSLGLVAKAIPEAFRSSPYSKDVYMELMALLYVLLNKARREGLMAIESHIEDPLSSPIFNEYPRIMKDAKLMEFITDYLRIMISGNMSSFEIETLMDEEIETYRHEREVPTHALQQVADALPAFGIVAAVLGVIKALAAVDQPPAILGDLISKAMVGTFLGVLLAYGFVAPMAARIERRTSESVKVLECIKVTLLASMNGYPPQLAVEFGRKVLFSAVRPSFGELEEHVRQAKSAATGRA | failed
MLIWWRGKFRRADEISLDFSLFEKSLQGAVYETLRTYSRAPFAAYKHYTRLKRSADFFNLPLSLSFDEFTKVLKAGADEFKQEVRIKVYLFPDSGEVLFVFSPLNIPDLETGVEVKISNVRRIPDLSTPPALKITGRTDIVLARREIVDCYDVILLGLNGQVCEGSFSNVFLVKEGKLITPSLDSGILDGITRENVIKLAKSLEIPVEERVVWVWELFEADEMFLTHTSAGVVPVRRLNEHSFFEEEPGPVTATLMENFEPFVLNLEENWVGI | not failed
MLIYGLARLLLFVVLTLIIHSLALLISAPVPLVMSAMLALIVAFPLSMLVFSKLRMNATQAVSQWDAQRKAHKEWVRSELADR | failed
MLKEILSSALLMLIMIDPSDKILLVSLLREDFHIEDVKSLIIRANLIGFILLLLFAVAGKIILQDIFHIELDALRVAGGFVLFKIGLEALEGGGMVTIKREKNILALAAVPVATPLIAGPAAITAAITLTAEHGIIVSIVGTLIAIAITAALMMIALYLMRGISKTALSVTIRIIGLFIMAIGAQMMITGAGGIVLNLIKGA | failed
MLKILVRLYLVIIVAYAGALLFIPDTIVGLFRDRFMAYNLDQAKGVQALIVRQFRQAPREQWPAVEQELASDFAPLELQLLRRDQAGLSDEEQARLEQGLYAVRIAEWGYYETVLAPLDKEWLIRLHSPPDPLDINVLSWGVTVLIGAAMLGCLLLWVWPHWRDLERLKETARRLGQGQMAERTHISPHSNIGELAGVFDTMASDLERHVNQQRELLNAVSHELRTPLTRLDFGLVLLFDEVPPASRKRLLELVGHVRELDELVLELLSYSRLYNADQARERVEVSLLELVDSVLGGFAEELDGRGIQWEVRAEGELPRFVLDPRLTARAVQNLVRNAMRYCDESLLLRLRLEADGACLLTVEDDGIGVPVEERERVFQPFYRLDRSRDRNTGGFGLGLAISRRAIEGQGGTLTLAQSALGGAQFRIRLPAGG | failed
MLKKGNEMKAVIVYASVHHGNTKKIEEAMASVISADVIDVTRKIKPDLSGYDVIGFVSGVYFHTFHEGIKKCIEENMSSKGQKVFLVATCGLGYRDYTKGMKDTLAKKDVLCMGSFQCRGWDTYGIFGKIGGIAKKHPNDRDLKEAQEFVLKTVCKTNNLEHHHHHH | failed
MLKKMSPSDWRPFYVSIARNMTNGIRGSIGGRLASWACLFQVTCGVAMKMPTLLSVSLLAALSLPAAAQTAPPQDVPFDGTLKIDVDATDLAHRIFKVNITMPAKPGPMTLLYPQWIPGDHSPTGPIDKLAGLVIKVDGKVVPWKRDQFDVYAFKVDVPQGATELTAEFKFLSPQAGNQGRVMMTPEMLNLQWNTTALYPAGYVVRNIKVQASVTLPAGWSYATALETDRRVGDTVSFKPIDFDDLVDSPMFAGKYYKRVELSTGKQPVYLNVFADEAKSLEAKPEQIKAHAALVQQMDKLYGARHFDHYEFLLALTKKLGGIGLEHHRSSENSGPPNYFTEWDKSWTMRDLLAHEFNHSWNGKYRRGADLSTPNFNVPMGDSLLWLYEGQTQFWGEVLAARSGLWTQDQARDMLAGVAATYERGRPGMTWRTLQDTTNDPTMSMRRSKPYRSYQMSEDYYSGAQMMWLEVDSKLRALTNNKRSIDDFAKAFFGMKNGDWDVNPYTFDDIVSTLNGVAAYDWASLLRERMDGHGSLNGGIEANGWKLVYNDEPNLAIKTYESNKNDVSLTYSLGLSLEGSGEVSEVLWDSPAFNAGIINGNSIVAVNGRAFSADVIKDAIKAAKGTAAPIELLVKRGDRYETVRIDYHGGLLYPHLERIAGKPDRLGELYKAR | failed
MLKKYIPLVARSFLAVIFIYAGVNKVFNFAQTSESMAKAGLPIVGVLLIFTIAFQILGGLSIILGYKAEIGAILLIIFLIPATIVFHNPFADPSQFNNFFKNLSIIGGLLLILAYGSGTLSLEASDRSSYVSQPEE | failed
MLKLLWIALGGSLGALCRYGLSVLARWGLPPTVPWGTLAANLVGCFLIGGLWVLAAQYSFSEELRVFIFTGGIGSLTTFSTYSLESLLLLREGRVWAGLANVLVSNVLGLVLVAIGAGCALFLLGGPVAAFGA | failed
MLKMKNNGGGCLAYISDCSVYLPVWKLKRDEISKETGMPSMGGERAVAHWDEDSITMAVEAARKFDGAFDAVIFASSSPPFRIKQCASFIASALDLPDSTFTMDITDTMRAATDALITANEFVDSGRFSRVLVVAGDKIPTKPGTLYEQLYGDAAAAVVVEKEGGAKILGYSTSTKPLPGSWMLADDDTVRDYDMRVDARYGYAASVQKAAMPLFAKLGLSPADIDRIVASAPDPKSYQGLLKAVGARPEEFYFDSVGIAGSAHPLLLLATQLEREGRILLGGYGEGADVIAVEIEQAMDSNMGRMLESRKEISYGDYLFNRGFVGVRDAPDRPSLTKFWRDEKSIIRFYGMKCKSCGTVSYPISRCCIECGAKDNYEEVRLGERGKIYTFTIDYLVMPGNYAGDGVHPHFIAVVDLDGGGRVLFELTDTLRDFSGVECDAEVERTFRLLFEKNRFRYYGWKARLPRLEHHHHHH | not failed
MLKNFNGRPSLATVLKASTVAGIAAAVLATGVPLEITRSYAEAVKVQAPAVPSFANVVDAVSPAVVSVRVENRVNPVSDNNNDGFSFDFNGRGFDDLPDDHPLKRFFKQFGQDPNDQQGHSRRFGQNGPNGGPNGPGGKGRLRPVAQGSGFFISEDGYIVTNNHVVSDGQAFVAVMNDGTELDAKLIGKDPRTDLAVLKVDGKGKKFTYVNWADDNNVRVGDWVVAVGNPFGLGGTVTAGIVSARGRDIGSGPYDDYLQVDAAVNRGNSGGPTFNLSGEVVGINTAIFSPSGGSVGIAFAIPASTARDVVADLMKDGQVSRGWLGVQIQPVTKDIAESIGLSEPSGALVVAPQAGSPGDKAGMKAGDVVTALNGETIKDARDLSRRIGAMQPGSKVELSVWRAGKAQPLTVELGTLPIDQKDASADDNSQPQQPEAPASEKALADLGLTVGPSDDGKGLAITGIDPDSDAADKGIKEGEKITSVNNQEVASPEDVVKVLNQAKKDGRTRALFQIQSNEGSRFVALPINGQG | failed
MLKNIFKISNIPAVLWGDKSEKIFIAVHGNMSNKEDAVIQIVAEEADRKGYQVLSFDLPEHGERKNDNTPCKVQFCVNELSIIMNYAKEHWKEINVFACSMGAYFSLLAFQNDVIEKALFLSPVVNMERIIENMMKWFNVTPELLQKEMTIETPIGQKLYWDYLCYVKEHPISTWNTDTYIMYGAKDELCEFETINYFTKKHRCELEVMETGEHYLHTEEQLKIFEQWLHKHID | failed
MLKQRIITALILLPIALCGFFLLEGSGFALFIGLVVSLGAWEWARLAGFEAQPARVAFAVVVAALLFLMHLVPGVAPWVLGAAVLWWALATYLVLTYPRSSEQWSGAAPKLLIGLLILLPAWQGLVFIKQLPLGNWLIMAVMVLVWGADIGAYFSGKAFGKRKLAPQVSPGKSWEGVYGGLALSLVITAVVGLVRDWTLGQMILGLLGAAIVVFISVVGDLTESMFKRQSGIKDSSNLLPGHGGVLDRIDSLTAAIPVFAVLLWMAAL | failed
MLKSGETNGVQSNVVRASSRMRGLAEPGIKDNQGRTWRRLIVTDCFISTKVWYSLYKGTLEATRKRVSDYISDLTMVEIIGLQAFTTDGGIAS | failed
MLKTPYYLIDKRALLQNLEVIRRIRERSGAKVLLALKCFATWSVFDLMREYMDGTTSSSLFEVRLGREKFGGETHAYSVAYAEDDIDDVVACADKIIFNSLSQLERYAPRASAIPRGLRLNPGISVSGYDLANPARPFSRLGETDLDRIAQAMPMIDGFMVHNNCENRDFTRFDALLTELEHRYGHLLGQINWISLGGGIHFTEPGYALDAFCDRLRRFSEQYGVQVYLEPGEAAITNTATLEVTVLDVMRNEKNLAIVDAATEAHMLDLLIYRMSARVQPDQGPHRYVIYGNSCLAGDVFGEFSFESPLQPGSRISIQDAAGYTMVKKNWFNGVRMPAIAIRELDGEIRLVREFGYQDYVDSLS | failed
MLLDGTPFARRRVTSLTSANRKGAARRTCPEAAGGPMASSAGLALCAQTLVVRGGSRFLAFSTTGSDDDCVFTYDCSTAEKKATPEDKGEDGQPADTGSDSILASTFSKSGRYFALTDDSKRLILFRTKPWQCLSARTIACQCVYFCVLDGIKCVLFRNSTRQVLSQACIEPAHCCGAVVSGSLCPLVIXAVSPDDQFVLTADRDEKIRVSWAAAPHSIESFCLGHTEFVSRILVVPSHPELLLSSSGDGTLRLWEYRSGRQLQCCDLAGLQEPGEQPGHKGLAASRIAFWGQESYVVLLCECVPVVFVFQLDASRQQLVFRQRLTFPHRVWDVVFEEARGLWVLQDCRDAPLVLWRPVGGEWQAAPDGAVSPRLCSHLRESWAMLEGSVGTDDSFRSLYKATFDNMTSYLKKKEERLQQQLKKKRQRSPFPGSPEQTKKACPGQSALSC | failed
MLLEQQKQLISLIQAAVAQCLPEAQAQVQLERPKVAAHGDIATNVAMQLAKPARRNPRELAQGIVDALMAQPQARELIQDAEIAGPGFINFRLTPAARQAVVQAVASQADA | failed
MLLFTPGPVAINEEMRTSFSQPMPHHRTKDFEKIFQSVRENLKKMTGLEEVLLLSSSGTGAMEASVISLCQKELLFVNAGKFGERFGKIAKAHSIKAHELVYEWDTPAQVDEILSVLKANPNIDAFCIQACESSGGLRHPVEKIAQAIKETNPNVFVIVDAITALGVEPLEITHVDALIGGSQKAFMLPPAMSLVALSQNAIERIEERNVGFYFNLKSELKNQRNNTTSYTAPILHTLGLQRYFELVQNLGGFEALYRETKKAALATQKAVLALGLKIFPKSPSLSMTTIVNEHAKELRNLLKEKYQVQFAGGQEPYKDALIRINHMGIIPVYKSAYALNALELALNDLDLREFDGVANATFLKQYYGI | failed
